Target: the molecule itself
Assay: X-ray crystal structure, 1.53 Å

B1: MSBI1.176 Rep protein WH1 domain (residues 1-135) (other)
chain: MSDLIVKDNALMNASYNLALVEQRLILLAIIEARETGKGINANDPLTVHASSYINQFNVERHTAYQALKDACKDLFARQFSYQEKRERGRINITSRWVSQIGYMDDTATVEIIFAPAVVPLITRLEEQFTQYDIE
notes: This entry is one protomer; Two protomers (A and B) form the WH1 homodimer in the crystal, so the self-pair is written as m1 with m1; The construct of residues 1-135 was expressed in E. coli as a His-tagged fusion in modified pMal-c2X and cleaved with HRV-3C protease; also called MSBI1.176 WH1; MSBI1 WH1
binding result: binds
